Assay results from patent publication US20240150490A1.

Legend:
[1] = target: CA IX expressed by cells (C-33a_CA IX transfectants; hypoxic BT-20, JIMT-1, 8-MG-BA and 42-MG-BA cells) (human) (UniProt Q16790); assay: flow cytometry, M75 1 ug/ml and Alexa 488 secondary antibody, hypoxic JIMT-1 cells
[2] = target: CA IX expressed by cells (C-33a_CA IX transfectants; hypoxic BT-20, JIMT-1, 8-MG-BA and 42-MG-BA cells) (human) (UniProt Q16790); assay: flow cytometry, M75 1 ug/ml and Alexa 488 secondary antibody, hypoxic BT-20 cells

median signal level of CA IX-staining [1]: 86.8
median signal level of CA IX-staining [2]: 108
Substance: mouse monoclonal antibody M75
